Data from US20250340662A1 (AKIRAM THERAPEUTICS, published 2025).

T1: Cynomolgus v6-peptide (cynomolgus, UniProt A0A2K5VJE0 387-429, N-terminal biotin)
T1 construct: domain: v6-region (43 amino acids); also called Cm v6-peptide; cm v6-peptide
T1 peptide: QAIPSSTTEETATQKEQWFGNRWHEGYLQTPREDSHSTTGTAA

T2: Human v6-peptide (human, N-terminal biotin)
T2 construct: Bachem #4108947, 43 amino acids, synthetic; also called Hm v6-peptide; hm v6-peptide
T2 peptide: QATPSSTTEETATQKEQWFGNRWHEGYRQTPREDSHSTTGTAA


Assays:
Human CD44v6 iso4-Fc [1] = biological target: T3, Human CD44v6 iso4-Fc (human, UniProt P16070-4 21-606, limits assumed, chemically biotinylated in the form called Bio-CD44v6); experiment: SPR SCK, antibody immobilised, CD44v6-Fc injected; apparent KD
T3 construct: Custom ordered from ProMab, produced in HKB11 cells; The biotinylated and the plain form are kept as one molecule; also called Bio-CD44v6; bio-CD44v6
T3 sequence (P16070 other isoform, or with tags, fused parts or gaps limits assumed): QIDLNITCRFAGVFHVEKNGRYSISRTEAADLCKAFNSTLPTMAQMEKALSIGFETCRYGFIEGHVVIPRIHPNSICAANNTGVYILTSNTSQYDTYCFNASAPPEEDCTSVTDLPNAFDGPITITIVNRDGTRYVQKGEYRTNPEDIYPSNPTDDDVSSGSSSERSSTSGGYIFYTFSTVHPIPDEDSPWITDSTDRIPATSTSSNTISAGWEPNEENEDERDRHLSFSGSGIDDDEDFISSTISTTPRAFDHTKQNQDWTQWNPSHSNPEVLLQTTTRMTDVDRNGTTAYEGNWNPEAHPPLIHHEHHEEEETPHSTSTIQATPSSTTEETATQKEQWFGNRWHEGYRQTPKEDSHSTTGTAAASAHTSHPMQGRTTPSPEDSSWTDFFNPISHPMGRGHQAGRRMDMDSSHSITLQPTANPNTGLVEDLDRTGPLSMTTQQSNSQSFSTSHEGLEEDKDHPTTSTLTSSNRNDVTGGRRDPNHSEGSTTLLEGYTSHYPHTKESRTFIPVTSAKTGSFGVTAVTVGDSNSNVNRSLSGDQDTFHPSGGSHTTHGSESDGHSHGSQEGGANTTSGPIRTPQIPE
Description: (§1) The SPR measurements were performed on a BIAcore T200 instrument (Cytiva) using a SCK approach. Each antibody was directly immobilized onto a separate surface of a CM5 series S sensor chip using EDC/NHS amine coupling chemistry according to manufacturer's recommendations. Immobilization levels were set to 1500 RU. All experiments were performed at 25° C. in running buffer (HBS, 0.05% Tween20, pH 7.5). A three-fold dilution series of CD44v6 and negative control CD44, comprised of five concentrations ranging between 10-0.12 nM, were prepared in running buffer. A four-fold dilution series of human, cynomolgus and rabbit v6-peptide, respectively, comprised of five concentrations ranging between 100-0.39 nM, were also prepared in running buffer. Each dilution series were sequentially injected, starting with the lowest concentration first, over an immobilized antibody clone and chip surfaces were regenerated with 10 mM glycin-HCl, pH 2.1. See table 10 for specifications of antigens used in SPR measurements. By subtracting the response curve of a reference surface (an activated and deactivated chip surface) and to a blank run (running buffer injected instead of antigen) response curve sensorgrams were obtained. Data was analyzed using the Biacore T200 Evaluation 3.1 software and a 1:1 Langmuir binding model.

Human CD44 iso6-Fc = biological target: T4, Human CD44 iso6-Fc (human, UniProt P16070-6 21-606, limits assumed, chemically biotinylated in the form called Bio-CD44); experiment: SPR SCK, antibody immobilised, CD44-Fc injected
T4 construct: Negative control antigen, ProMab, HKB11 cells; also called Bio-CD44; bio-CD44
T4 sequence (P16070 other isoform, or with tags, fused parts or gaps limits assumed): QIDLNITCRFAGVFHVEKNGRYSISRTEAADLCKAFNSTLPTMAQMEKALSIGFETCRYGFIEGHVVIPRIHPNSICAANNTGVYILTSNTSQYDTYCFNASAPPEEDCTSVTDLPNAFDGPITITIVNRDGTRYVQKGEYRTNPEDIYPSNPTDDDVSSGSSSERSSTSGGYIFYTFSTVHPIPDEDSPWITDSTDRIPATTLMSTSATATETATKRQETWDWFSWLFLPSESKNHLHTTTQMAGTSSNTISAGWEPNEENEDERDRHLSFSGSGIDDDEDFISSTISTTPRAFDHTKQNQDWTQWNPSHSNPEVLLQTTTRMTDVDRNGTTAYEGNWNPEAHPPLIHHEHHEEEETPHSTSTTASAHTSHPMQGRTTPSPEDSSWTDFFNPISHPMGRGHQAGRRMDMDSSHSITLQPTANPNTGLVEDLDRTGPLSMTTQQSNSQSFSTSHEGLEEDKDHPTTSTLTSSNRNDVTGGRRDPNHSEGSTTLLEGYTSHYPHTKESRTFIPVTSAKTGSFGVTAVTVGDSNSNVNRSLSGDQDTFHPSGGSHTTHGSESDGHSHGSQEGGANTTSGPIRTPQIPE
Description: as §1

Human CD44v6 iso4-Fc [2] = biological target: T3, Human CD44v6 iso4-Fc; experiment: SPR SCK, antibody immobilised, CD44v6-Fc injected
Description: as §1

Rabbit v6-peptide = biological target: T5, Rabbit v6-peptide (rabbit); experiment: SPR SCK, antibody immobilised, peptide injected
T5 construct: domain: v6-region (43 amino acids); also called Rb v6-peptide; rb v6-peptide
Description: as §1

Cynomolgus v6-peptide = biological target: T1, Cynomolgus v6-peptide; experiment: SPR SCK, antibody immobilised, peptide injected
Description: as §1

Human v6-peptide [3] = biological target: T2, Human v6-peptide; experiment: SPR SCK, antibody immobilised, peptide injected
Description: as §1

Human CD44v6 iso4-Fc [4] = biological target: T3, Human CD44v6 iso4-Fc; experiment: SPR SCK, antibody captured via anti-kappa, CD44v6-Fc injected
Description: (§2) Kinetic measurements were performed on a BIAcore T200 instrument (Cytiva) using a SCK approach. An α-human Kappa antibody (GE Healthcare #28958325), functioning as a capture ligand, was immobilized onto all four surfaces of a CM5-S amine sensor chip according to manufacturer's recommendations. Antibodies were injected and captured at equal response units (RU). A four-fold dilution series of CD44v6, consisting of five concentrations ranging between 80 nM-0.3 nM, were prepared in running buffer and sequentially injected over the chip surfaces. Single injections of 100 nM CD44 (negative control) was also performed.
(§3) All experiments were performed at 25° C. in running buffer (HBS supplemented with 0.05% Tween20, pH 7.5) and the chip surfaces were regenerated with 10 mM glycine-HCl, pH 2.1. By subtracting the response curve of a reference surface (an α-human Kappa antibody immobilized surface or a streptavidin immobilized surface) and to a blank run (running buffer injected instead of antigen or antibody) response curve sensorgrams were obtained. Data was analyzed using the Biacore T200 Evaluation 3.1 software and a 1:1 Langmuir binding model.

Human v6-peptide [5] = biological target: T2, Human v6-peptide; experiment: SPR SCK, biotin-peptide on SA chip, antibody injected; apparent KD
Description: (§4) For kinetic measurements of human v6-peptide, a streptavidin (SA) sensor chip was used to immobilize the v6-peptide at approximately 20 RU. A five-fold dilution series of each antibody, consisting of five concentrations ranging between 50 nM-0.08 nM, were prepared in running buffer and sequentially injected over the chip surfaces.
as §3

Human v6-peptide [6] = biological target: T2, Human v6-peptide; experiment: SPR SCK, biotin-peptide on SA chip, antibody injected
Description: as §4, §3

Human CD44v6 iso4-Fc [7] = biological target: T3, Human CD44v6 iso4-Fc; experiment: SPR SCK, antibody captured via anti-kappa, CD44v6-Fc injected; apparent KD
Description: as §2, §3

Row | Binder | Kd (Human CD44v6 iso4-Fc [1]) [nM] | koff (Human CD44v6 iso4-Fc [2]) [s⁻¹] | kon (Human CD44v6 iso4-Fc [2]) [M⁻¹ s⁻¹] | Kd (Rabbit v6-peptide) [nM] | koff (Rabbit v6-peptide) [s⁻¹] | kon (Rabbit v6-peptide) [M⁻¹ s⁻¹] | Kd (Cynomolgus v6-peptide) [nM] | koff (Cynomolgus v6-peptide) [s⁻¹] | kon (Cynomolgus v6-peptide) [M⁻¹ s⁻¹] | Kd (Human v6-peptide [3]) [nM] | koff (Human v6-peptide [3]) [s⁻¹] | kon (Human v6-peptide [3]) [M⁻¹ s⁻¹] | koff (Human CD44v6 iso4-Fc [4]) [s⁻¹] | kon (Human CD44v6 iso4-Fc [4]) [M⁻¹ s⁻¹] | Kd (Human v6-peptide [5]) [nM] | koff (Human v6-peptide [6]) [s⁻¹] | kon (Human v6-peptide [6]) [M⁻¹ s⁻¹] | Kd (Human CD44v6 iso4-Fc [7]) [nM] | binding result (Human CD44 iso6-Fc)
1 | AL-MN114-132 IgG1 LALA (antibody, V domains shown, item 20 iii) gives heavy 77 / light 96 without naming the format) VH: EVQLLESGGGLVQPGGSLRLSCAASGFTFSSYAMSWVRQAPGKGLEWVSAISGGGSSTYYADSVKGRFTISRDNSKNTLYLQMNSLRAEDTAVYYCARHYYSDSDYRSSAAMDYWGQGTLVTVSS VL: DIQMTQSPSSLSASVGDRVTITCRASQSISSYLNWYQQKPGKAPKLLIYAASSLQSGVPSRFSGSGSGTDFTLTISSLQPEDFATYYCQQDLYLLTFGQGTKLEIK | 0.062 | 0.00012 | 1.9e+06 | 13 | 0.023 | 1.7e+06 | 7.3 | 0.0096 | 1.3e+06 | 12 | 0.013 | 1.1e+06 |  |  |  |  |  |  | no binding (tested: 10 nM highest CD44 concentration)
2 | AL-MN114-465 IgG1 LALA IAHA (antibody, V domains shown, Human IgG1 LALA IAHA, kappa) VH: EVQLLESGGGLVQPGGSLRLSCAASGFSFGSYAMSWVRQAPGKGLEWVSAISAGGSSTFYADSVKGRFTISRDNSKNTLYLQMNSLRAEDTAVYYCARHYYSDSDYRSSAAMDYWGQGTLVTVSS VL: DIQMTQSPSSLSASVGDRVTITCRASQSISSYLNWYQQKPGKAPKLLIYTASSLQSGVPSRFSGSGSGTDFTLTISSLQPEDFATYYCQQDLYLLTFGQGTKLEIK | 1.6 | 0.00027 | 170000 | 19 | 0.015 | 830000 | 13 | 0.0085 | 680000 | 14 | 0.0093 | 680000 |  |  |  |  |  |  | no binding (tested: 10 nM highest CD44 concentration)
3 | U-MN114-19 IgG1 LALA (antibody, V domains shown, item 20 xxi) gives heavy 149 / light 150 without naming the format; also called parental clone U-MN114-19) VH: not shown VL: DIQMTQSPSSLSASVGDRVTITCRASQSISSYLNWYQQKPGKAPKLLIYAASSLQSGVPSRFSGSGSGTDFTLTISSLQPEDFATYYCQQDLYLLTFGQGTKLEIK | 1.2 | 0.00015 | 130000 | 79 | 0.15 | 2e+06 | 44 | 0.046 | 1e+06 | 58 | 0.049 | 830000 |  |  |  |  |  |  | no binding (tested: 10 nM highest CD44 concentration)
4 | U-MN114-19 IgG4 S228P (antibody, V domains shown, Human IgG4 S228P (EU), kappa; also called MN19; parental clone) VH: not shown VL: DIQMTQSPSSLSASVGDRVTITCRASQSISSYLNWYQQKPGKAPKLLIYAASSLQSGVPSRFSGSGSGTDFTLTISSLQPEDFATYYCQQDLYLLTFGQGTKLEIK |  |  |  |  |  |  |  |  |  |  |  |  | 0.001 | 320000 | 0.28 | 0.00018 | 730000 | 3.3 | 
5 | AL-MN114-132 IgG1 LALA IAHA (antibody, V domains shown, Human IgG1 LALA IAHA, kappa) VH: EVQLLESGGGLVQPGGSLRLSCAASGFTFSSYAMSWVRQAPGKGLEWVSAISGGGSSTYYADSVKGRFTISRDNSKNTLYLQMNSLRAEDTAVYYCARHYYSDSDYRSSAAMDYWGQGTLVTVSS VL: DIQMTQSPSSLSASVGDRVTITCRASQSISSYLNWYQQKPGKAPKLLIYAASSLQSGVPSRFSGSGSGTDFTLTISSLQPEDFATYYCQQDLYLLTFGQGTKLEIK | 1.5 | 0.00021 | 140000 | 37 | 0.037 | 990000 | 17 | 0.014 | 860000 | 22 | 0.016 | 730000 |  |  |  |  |  |  | no binding (tested: 10 nM highest CD44 concentration)

The next lines start with results.

Row | Kd (Human CD44v6 iso4-Fc [1]) [nM] | koff (Human CD44v6 iso4-Fc [2]) [s⁻¹] | kon (Human CD44v6 iso4-Fc [2]) [M⁻¹ s⁻¹] | Kd (Rabbit v6-peptide) [nM] | koff (Rabbit v6-peptide) [s⁻¹] | kon (Rabbit v6-peptide) [M⁻¹ s⁻¹] | Kd (Cynomolgus v6-peptide) [nM] | koff (Cynomolgus v6-peptide) [s⁻¹] | kon (Cynomolgus v6-peptide) [M⁻¹ s⁻¹] | Kd (Human v6-peptide [3]) [nM] | koff (Human v6-peptide [3]) [s⁻¹] | kon (Human v6-peptide [3]) [M⁻¹ s⁻¹] | koff (Human CD44v6 iso4-Fc [4]) [s⁻¹] | kon (Human CD44v6 iso4-Fc [4]) [M⁻¹ s⁻¹] | Kd (Human v6-peptide [5]) [nM] | koff (Human v6-peptide [6]) [s⁻¹] | kon (Human v6-peptide [6]) [M⁻¹ s⁻¹] | Kd (Human CD44v6 iso4-Fc [7]) [nM] | Binder | binding result (Human CD44 iso6-Fc)
6 | 1.1 | 0.00026 | 230000 | 22 | 0.016 | 710000 | 13 | 0.0095 | 710000 | 17 | 0.011 | 620000 |  |  |  |  |  |  | AL-MN114-71 IgG1 LALA IAHA (antibody, V domains shown, Human IgG1 LALA IAHA, kappa) VH: EVQLLESGGGLVQPGGSLRLSCAASGFSFRSFAMSWVRQAPGKGLEWVSAISGGGSSTFYADSVKGRFTISRDNSKNTLYLQMNSLRAEDTAVYYCARHYYSDSDYRSSAAMDYWGQGTLVTVSS VL: DIQMTQSPSSLSASVGDRVTITCRASQSISSYLNWYQQKPGKAPKLLIYAASTLQSGVPSRFSGSGSGTDFTLTISSLQPEDFATYYCQQDLYLLTFGQGTKLEIK | no binding (tested: 10 nM highest CD44 concentration)
7 | 1 | 0.00032 | 320000 | 15 | 0.012 | 820000 | 11 | 0.0079 | 720000 | 12 | 0.0083 | 710000 |  |  |  |  |  |  | AL-MN114-444 IgG1 LALA IAHA (antibody, V domains shown, Human IgG1 LALA IAHA, kappa) VH: EVQLLESGGGLVQPGGSLRLSCAASGFTFRSFAMSWVRQAPGKGLEWVSAISGGGSSTFYADSVKGRFTISRDNSKNTLYLQMNSLRAEDTAVYYCARHYYSDSDYRSSAAMDYWGQGTLVTVSS VL: DIQMTQSPSSLSASVGDRVTITCRASQSIGSYLNWYQQKPGKAPKLLIYSASSLQSGVPSRFSGSGSGTDFTLTISSLQPEDFATYYCQQDLYLLTFGQGTKLEIK | no binding (tested: 10 nM highest CD44 concentration)
8 | 0.05 | 0.00012 | 2.5e+06 | 31 | 0.067 | 2.2e+06 | 20 | 0.034 | 1.7e+06 | 17 | 0.019 | 1.1e+06 |  |  |  |  |  |  | U-MN114-19 IgG1 LALA IAHA (antibody, V domains shown, also called parental clone U-MN114-19) VH: not shown VL: DIQMTQSPSSLSASVGDRVTITCRASQSISSYLNWYQQKPGKAPKLLIYAASSLQSGVPSRFSGSGSGTDFTLTISSLQPEDFATYYCQQDLYLLTFGQGTKLEIK | no binding (tested: 10 nM highest CD44 concentration)
